Laboratory results as given in paper PMC11480844.

B1: H2-Kb / B5 (parent)
chain 1: TQTVSQSDAHVTVFEGDSVELRCNYSYGGSIYLSWYIQHHGHGLQFLLKYYSGNPVVQGVNGFEAEFSKSDSSFHLRKASVHWSDSAVYFCAVSLYQGGRALIFGTGTTVSVSP
chain 2: EAGVTQSPRYAVLQEGQAVSFWCDPISGHDTLYWYQQPRDQGPQLLVYFRDEAVIDNSQLPSDRFSAVRPKGTNSTLKIQSAKQGDTATYLCASSFAGGARAEQFFGPGTRLTVL
chain 3: not shown
chain 4: IQKTPQIQVYSRHPPENGKPNILNCYVTQFHPPHIEIQMLKNGKKIPKVEMSDMSFSKDWSFYILAHTEFTPTETDTYACRVKHDSMAEPKTVYWDRDM
chain 5: SIINFEKL
B2: H2-Kb / B13 (parent)
chain 1: AQKVTQTQTSISVMEKTTVTMDCVYETQDSSYFLFWYKQTASGEIVFLIRQDSYKKENATVGHYSLNFQKPKSSIGLIITATQIEDSAVYFCAMREGTGGYKVVFGSGTRLLVSP
chain 2: EAAVTQSPRNKVTVTGGNVTLSCRQTNSHNYMYWYRQDTGHGLRLIHYSYGAGNLQIGDVPDGYKATRTTQEDFFLLLELASPSQTSLYFCASSDGTGHEQYFGPGTRLTVL
chain 3: not shown
chain 4: B1 chain 4
chain 5: SIINFEKL

Variants of: B1
Experiment: % of reporter cells activated (NFAT-GFP), raw
Conditions: with B5; scale: % of reporter cells activated
Further: test concentration or dose not given here.

Ratio to parent, by site and new letter:
chain 5 K7: C 1.14 | H 1.29 | E 1.31 | S 0.944 | D 1.11 | M 1.57 | V 1.19
chain 5 S1: C 0.875 | H 1.11 | Y 0.75 | K 0.764
chain 5 I3: L 0.847 | S 1.54 | A 1.01 | Q 0.792 | G 0.917 | E 1.17 | P 1.08 | K 1.11 | V 1.1
chain 5 I2: A 0.736 | T 0.542 | S 0.694 | R 0.819 | G 1.13 | V 0.375 | C 0.694
chain 5 F5: R 1 | D 1.28 | G 0.569 | C 1.92 | V 3.75
chain 5 L8: Y 0.958 | A 1.54 | M 1.61 | N 1.49
chain 5 N4: I 0.5 | Q 1.71 | W 0.931 | T 0.514
chain 5 E6: F 1.54 | W 1.12 | P 1.11

Variants of: B2
Experiment: % of reporter cells activated (NFAT-GFP), raw
Conditions: with B13; scale: % of reporter cells activated

Ratio to parent of substitutions, site by site:
chain 5 K7: D 0.108 | Y 0.195 | W 1.27 | F 1.21 | H 0.431 | C 1.38 | P 0.0545 | A 0.722 | R 0.987 | G 0.471 | N 1.14 | L 3.14 | M 4.28 | I 1.32 | Q 0.887 | V 2.07 | E 0.113
chain 5 E6: Y 0.0507 | P 0.101 | K 0.611 | Q 0.0298 | F 0.0355 | M 0.0342 | L 0.0292 | V 0.038 | C 0.0215 | W 0.0431 | A 0.0525 | N 0.0224 | S 0.0411 | H 0.0361 | R 0.024 | G 0.0583 | D 0.0608 | T 0.0399
chain 5 I3: P 5.54 | F 0.122 | Q 4.85 | S 1.98 | T 1.56 | K 0.422 | W 0.293 | H 1.64 | G 1.07 | A 4.66 | L 2.17 | V 2.29 | M 5.23 | E 4.51 | Y 0.117 | N 1.58 | C 5.34 | D 0.0646
chain 5 L8: R 1.98 | A 0.227 | K 0.45 | T 0.331 | V 0.393 | E 2.13 | G 1.21 | Y 0.812 | F 0.189 | I 0.992 | C 3.32 | Q 0.247 | S 2.06 | P 2.29 | W 0.423 | N 3 | M 0.471 | D 2.32 | H 0.954
chain 5 N4: M 0.0596 | W 0.025 | P 0.0596 | I 0.179 | A 0.052 | L 0.0811 | C 0.0444 | V 0.0342 | H 0.038 | F 0.393 | K 0.0279 | T 0.0378 | G 0.101 | Q 0.0444 | R 0.104 | E 0.156 | D 0.0238
chain 5 S1: A 0.835 | D 0.113 | I 0.381 | W 1.35 | E 0.113 | M 1.15 | F 0.0232 | R 6.17 | G 0.236 | P 0.139 | K 0.64 | H 0.0963 | L 0.112 | Y 0.11 | T 0.544 | C 0.0621 | N 0.0976
chain 5 I2: V 1.98 | N 0.347 | C 1.49 | K 1.84 | P 0.285 | M 0.411 | R 1.49 | D 0.523 | G 0.284 | H 1 | W 2.33 | T 1.09 | A 1.04 | Q 0.243 | E 0.75 | L 1.48 | S 0.848
chain 5 F5: T 0.195
